First the molecules themselves.
T1: recombinant human activated Factor VII (FVIIa) (human, UniProt P08709 61-212; P08709 213-466, ten glutamate residues of the Gla domain may be gamma-carboxylated)
T1 construct: chains tethered by a disulfide bond; also called Factor VIIa; rFVIIa
T1 sequence 1: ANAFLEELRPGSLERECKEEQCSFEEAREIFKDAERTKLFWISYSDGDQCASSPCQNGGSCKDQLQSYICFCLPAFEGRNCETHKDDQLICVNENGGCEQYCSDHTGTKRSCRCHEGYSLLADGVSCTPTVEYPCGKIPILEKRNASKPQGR
T1 sequence 2: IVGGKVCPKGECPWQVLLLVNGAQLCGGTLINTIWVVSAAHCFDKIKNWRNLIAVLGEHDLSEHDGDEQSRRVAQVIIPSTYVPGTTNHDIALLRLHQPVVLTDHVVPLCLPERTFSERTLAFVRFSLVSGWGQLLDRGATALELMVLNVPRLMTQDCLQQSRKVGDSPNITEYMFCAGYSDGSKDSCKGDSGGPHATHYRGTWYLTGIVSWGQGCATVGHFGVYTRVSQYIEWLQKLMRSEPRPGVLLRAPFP

B1: VH SEQ ID NO 634 / VL SEQ ID NO 406 (antibody, IgG4, V domains shown)
VH: QVQLQESGPGLVKPSQTLSLTCTVSGYSISSDSAWSWIRQPPGKGLEWIGYIQYSGSTNYNPSLKSRVTISRDTSKNQFSLKLSSVTAADTAVYYCARSVNYYGNSFAVGYWGQGTLVTVSS
VL: EIVLTQSPATLSLSPGERATLSCRASQGVSDYLAWYQQKPGQAPRLLIKYASQPATGIPARFSGSGSGTDFTLTISSLEPEDFAVYYCQNGHSFPLTFGAGTKLEIK
notes: humanized 11F2; IgG4 S228P/kappa
B2: VH SEQ ID NO 642 / VL SEQ ID NO 342 (antibody, IgG4, V domains shown)
VH: QVQLQESGPGLVKPSQTLSLTCTVSGYSISSDSAWSWIRQPPGKGLEWIGYIYYSGSTNYNPSLKSRVTISVDTSKNQFSLKLSSVTAADTAVYYCARSVNYYGNSFAVGYWGQGTSVTVSS
VL: EIVLTQSPATLSLSPGERATLSCRASQGISDYLHWYQQKPGQAPRLLIKYTSQPATGIPARFSGSGSGRDFTLTISSLEPEDFAVYYCQNGHSFPLTFGAGTKLELK
notes: as for B1
B3: VH SEQ ID NO 634 / VL SEQ ID NO 462 (antibody, IgG4, V domains shown)
VH: QVQLQESGPGLVKPSQTLSLTCTVSGYSISSDSAWSWIRQPPGKGLEWIGYIQYSGSTNYNPSLKSRVTISRDTSKNQFSLKLSSVTAADTAVYYCARSVNYYGNSFAVGYWGQGTLVTVSS
VL: EIVLTQSPATLSLSPGERATLSCRASQGVSDYLHWYQQKPGQAPRLLIKYASQPATGIPARFSGSGSGTDFTLTISSLEPEDFAVYYCQNGHSFPLTFGAGTKLEIK
notes: as for B1
B4: VH SEQ ID NO 634 / VL SEQ ID NO 486 (antibody, IgG4, V domains shown)
VH: QVQLQESGPGLVKPSQTLSLTCTVSGYSISSDSAWSWIRQPPGKGLEWIGYIQYSGSTNYNPSLKSRVTISRDTSKNQFSLKLSSVTAADTAVYYCARSVNYYGNSFAVGYWGQGTLVTVSS
VL: EIVLTQSPATLSLSPGERATLSCRASQGVSDYLHWYQQKPGQAPRLLIKYASQPATGIPARFSGSGSGTDFTLTISSLEPEDFGVYYCQNGHSFPLTFGQGTKLEIK
notes: as for B1
B5: VH SEQ ID NO 634 / VL SEQ ID NO 422 (antibody, IgG4, V domains shown)
VH: QVQLQESGPGLVKPSQTLSLTCTVSGYSISSDSAWSWIRQPPGKGLEWIGYIQYSGSTNYNPSLKSRVTISRDTSKNQFSLKLSSVTAADTAVYYCARSVNYYGNSFAVGYWGQGTLVTVSS
VL: EIVLTQSPATLSLSPGERATLSCRASQGVSDYLAWYQQKPGQAPRLLIKYASQPATGIPARFSGSGSGTDFTLTISSLEPEDFAVYYCQQGHSFPLTFGQGTKLEIK
notes: as for B1
B6: VH SEQ ID NO 634 / VL SEQ ID NO 502 (antibody, IgG4, V domains shown)
VH: QVQLQESGPGLVKPSQTLSLTCTVSGYSISSDSAWSWIRQPPGKGLEWIGYIQYSGSTNYNPSLKSRVTISRDTSKNQFSLKLSSVTAADTAVYYCARSVNYYGNSFAVGYWGQGTLVTVSS
VL: EIVLTQSPATLSLSPGERATLSCRASQGVSDYLHWYQQKPGQAPRLLIKYTSQPATGIPARFSGSGSGTDFTLTISSLEPEDFAVYYCQNGHSFPLTFGQGTKLEIK
notes: as for B1
B7: VH SEQ ID NO 642 / VL SEQ ID NO 334 (antibody, IgG4, V domains shown)
VH: QVQLQESGPGLVKPSQTLSLTCTVSGYSISSDSAWSWIRQPPGKGLEWIGYIYYSGSTNYNPSLKSRVTISVDTSKNQFSLKLSSVTAADTAVYYCARSVNYYGNSFAVGYWGQGTSVTVSS
VL: EIVLTQSPATLSLSPGERATLSCRASQGISDYLHWYQQKPGQAPRLLIKYASQPATGIPARFSGSGSGTDFTLTISSLEPEDFAVYYCQNGHSFPLTFGQGTKLEIK
notes: as for B1
B8: VH SEQ ID NO 634 / VL SEQ ID NO 470 (antibody, IgG4, V domains shown)
VH: QVQLQESGPGLVKPSQTLSLTCTVSGYSISSDSAWSWIRQPPGKGLEWIGYIQYSGSTNYNPSLKSRVTISRDTSKNQFSLKLSSVTAADTAVYYCARSVNYYGNSFAVGYWGQGTLVTVSS
VL: EIVLTQSPATLSLSPGERATLSCRASQGVSDYLHWYQQKPGQAPRLLIKYASQPATGIPARFSGSGSGTDFTLTISSLEPEDFAVYYCQNGHSFPLTFGQGTKLEIK
notes: as for B1
B9: VH SEQ ID NO 642 / VL SEQ ID NO 350 (antibody, IgG4, V domains shown)
VH: QVQLQESGPGLVKPSQTLSLTCTVSGYSISSDSAWSWIRQPPGKGLEWIGYIYYSGSTNYNPSLKSRVTISVDTSKNQFSLKLSSVTAADTAVYYCARSVNYYGNSFAVGYWGQGTSVTVSS
VL: EIVLTQSPATLSLSPGERATLSCRASQGISDYLHWYQQKPGQAPRLLIKYTSQPATGIPARFSGSGSGTDFTLTISSLEPEDFAVYYCQNGHSFPLTFGAGTKLELK
notes: as for B1
B10: VH SEQ ID NO 642 / VL SEQ ID NO 326 (antibody, IgG4, V domains shown)
VH: QVQLQESGPGLVKPSQTLSLTCTVSGYSISSDSAWSWIRQPPGKGLEWIGYIYYSGSTNYNPSLKSRVTISVDTSKNQFSLKLSSVTAADTAVYYCARSVNYYGNSFAVGYWGQGTSVTVSS
VL: EIVLTQSPATLSLSPGERATLSCRASQGISDYLHWYQQKPGEAPRLLIKYTSQPATGIPARFSGSGSGTDFTLTISSLEPEDFGVYYCQNGHSFPLTFGAGTKLELK
notes: as for B1
B11: VH SEQ ID NO 634 / VL SEQ ID NO 454 (antibody, IgG4, V domains shown)
VH: QVQLQESGPGLVKPSQTLSLTCTVSGYSISSDSAWSWIRQPPGKGLEWIGYIQYSGSTNYNPSLKSRVTISRDTSKNQFSLKLSSVTAADTAVYYCARSVNYYGNSFAVGYWGQGTLVTVSS
VL: EIVLTQSPATLSLSPGERATLSCRASQGVSDYLHWYQQKPGEAPRLLIKYASQPATGIPARFSGSGSGTDFTLTISSLEPEDFAVYYCQNGHSFPLTFGQGTKLEIK
notes: as for B1
B12: VH SEQ ID NO 634 / VL SEQ ID NO 438 (antibody, IgG4, V domains shown)
VH: QVQLQESGPGLVKPSQTLSLTCTVSGYSISSDSAWSWIRQPPGKGLEWIGYIQYSGSTNYNPSLKSRVTISRDTSKNQFSLKLSSVTAADTAVYYCARSVNYYGNSFAVGYWGQGTLVTVSS
VL: EIVLTQSPATLSLSPGERATLSCRASQGVSDYLAWYQQKPGQAPRLLIKYASQPATGIPARFSGSGSGTDFTLTISSLEPEDVAVYYCQNGHSFPLTFGQGTKLEIK
notes: as for B1
B13: VH SEQ ID NO 642 / VL SEQ ID NO 318 (antibody, IgG4, V domains shown)
VH: QVQLQESGPGLVKPSQTLSLTCTVSGYSISSDSAWSWIRQPPGKGLEWIGYIYYSGSTNYNPSLKSRVTISVDTSKNQFSLKLSSVTAADTAVYYCARSVNYYGNSFAVGYWGQGTSVTVSS
VL: EIVLTQSPATLSLSPGERATLSCRASQGISDYLHWYQQKPGEAPRLLIKYTSQPATGIPARFSGSGSGTDFTLTISSLEPEDFAVYYCQNGHSFPLTFGQGTKLEIK
notes: as for B1
B14: VH SEQ ID NO 634 / VL SEQ ID NO 446 (antibody, IgG4, V domains shown)
VH: QVQLQESGPGLVKPSQTLSLTCTVSGYSISSDSAWSWIRQPPGKGLEWIGYIQYSGSTNYNPSLKSRVTISRDTSKNQFSLKLSSVTAADTAVYYCARSVNYYGNSFAVGYWGQGTLVTVSS
VL: EIVLTQSPATLSLSPGERATLSCRASQGVSDYLAWYQQKPGQAPRLLIKYTSQPATGIPARFSGSGSGTDFTLTISSLEPEDFAVYYCQNGHSFPLTFGQGTKLEIK
notes: as for B1
B15: VH SEQ ID NO 634 / VL SEQ ID NO 414 (antibody, IgG4, V domains shown)
VH: QVQLQESGPGLVKPSQTLSLTCTVSGYSISSDSAWSWIRQPPGKGLEWIGYIQYSGSTNYNPSLKSRVTISRDTSKNQFSLKLSSVTAADTAVYYCARSVNYYGNSFAVGYWGQGTLVTVSS
VL: EIVLTQSPATLSLSPGERATLSCRASQGVSDYLAWYQQKPGQAPRLLIKYASQPATGIPARFSGSGSGTDFTLTISSLEPEDFAVYYCQNGHSFPLTFGQGTKLEIK
notes: as for B1
B16: VH SEQ ID NO 634 / VL SEQ ID NO 430 (antibody, IgG4, V domains shown)
VH: QVQLQESGPGLVKPSQTLSLTCTVSGYSISSDSAWSWIRQPPGKGLEWIGYIQYSGSTNYNPSLKSRVTISRDTSKNQFSLKLSSVTAADTAVYYCARSVNYYGNSFAVGYWGQGTLVTVSS
VL: EIVLTQSPATLSLSPGERATLSCRASQGVSDYLAWYQQKPGQAPRLLIKYASQPATGIPARFSGSGSGTDFTLTISSLEPEDFGVYYCQNGHSFPLTFGQGTKLEIK
notes: as for B1
B17: VH SEQ ID NO 642 / VL SEQ ID NO 310 (antibody, IgG4, V domains shown)
VH: QVQLQESGPGLVKPSQTLSLTCTVSGYSISSDSAWSWIRQPPGKGLEWIGYIYYSGSTNYNPSLKSRVTISVDTSKNQFSLKLSSVTAADTAVYYCARSVNYYGNSFAVGYWGQGTSVTVSS
VL: EIVLTQSPATLSLSPGERATLSCRASQGISDYLAWYQQKPGQAPRLLIKYASQPATGIPARFSGSGSGTDFTLTISSLEPEDFAVYYCQNGHSFPLTFGQGTKLEIK
notes: as for B1
B18: VH SEQ ID NO 634 / VL SEQ ID NO 478 (antibody, IgG4, V domains shown)
VH: QVQLQESGPGLVKPSQTLSLTCTVSGYSISSDSAWSWIRQPPGKGLEWIGYIQYSGSTNYNPSLKSRVTISRDTSKNQFSLKLSSVTAADTAVYYCARSVNYYGNSFAVGYWGQGTLVTVSS
VL: EIVLTQSPATLSLSPGERATLSCRASQGVSDYLHWYQQKPGQAPRLLIKYASQPATGIPARFSGSGSGTDFTLTISSLEPEDFAVYYCQQGHSFPLTFGQGTKLEIK
notes: as for B1
B19: VH SEQ ID NO 642 / VL SEQ ID NO 358 (antibody, IgG4, V domains shown)
VH: QVQLQESGPGLVKPSQTLSLTCTVSGYSISSDSAWSWIRQPPGKGLEWIGYIYYSGSTNYNPSLKSRVTISVDTSKNQFSLKLSSVTAADTAVYYCARSVNYYGNSFAVGYWGQGTSVTVSS
VL: EIVLTQSPATLSLSPGERATLSCRASQGISDYLHWYQQKPGQAPRLLIKYTSQPATGIPARFSGSGSGTDFTLTISSLEPEDFAVYYCQNGHSFPLTFGQGTKLEIK
notes: as for B1
B20: VH SEQ ID NO 634 / VL SEQ ID NO 494 (antibody, IgG4, V domains shown)
VH: QVQLQESGPGLVKPSQTLSLTCTVSGYSISSDSAWSWIRQPPGKGLEWIGYIQYSGSTNYNPSLKSRVTISRDTSKNQFSLKLSSVTAADTAVYYCARSVNYYGNSFAVGYWGQGTLVTVSS
VL: EIVLTQSPATLSLSPGERATLSCRASQGVSDYLHWYQQKPGQAPRLLIKYASQPATGIPARFSGSGSGTDFTLTISSLEPEDVAVYYCQNGHSFPLTFGQGTKLEIK
notes: as for B1

The target in the experiment is T1, recombinant human activated Factor VII …. As to the kind of experiment: BLI (Fortebio).
What is called Kd is the equilibrium constant for the complex coming apart. With B1, the Kd was 4.2 nM.
As for B2, the figure is 40 nM; as for B3, 1.2 nM.
On to B4, for which the Kd turned out to be 1.4 nM.
Regarding B5, the Kd was 26 nM.
Regarding B6, the Kd came out at 1.3 nM.
The result for B7 reads 1000 nM.
The result for B8 reads 1 nM; that for B9, 120 nM; that for B10, 23 nM.
As for B11, the figure is 1.2 nM.
For the molecule B12, the Kd came to 4.8 nM.
Regarding B13, the Kd came out at 81 nM.
Regarding B14, the equilibrium dissociation constant (Kd) was found to be 7.7 nM.
As for B15, the figure is 4.6 nM.
As for B16, the figure is 4.9 nM.
As for B17, the figure is 1600 nM; as for B18, 1.8 nM.
Turning to B19, the Kd is 320 nM.
As for B20, the Kd amounted to 1.3 nM.

For the origin of these results see patent US20220064329A1 (Novo Nordisk, published 2022).
